Assay [1] has as its target T1, human MCT1 (monocarboxylate transporter 1, SLC16A1) (human, UniProt P53985 1-500).
T1 construct: Multipass membrane transporter; also called human MCT1 protein
T1 sequence: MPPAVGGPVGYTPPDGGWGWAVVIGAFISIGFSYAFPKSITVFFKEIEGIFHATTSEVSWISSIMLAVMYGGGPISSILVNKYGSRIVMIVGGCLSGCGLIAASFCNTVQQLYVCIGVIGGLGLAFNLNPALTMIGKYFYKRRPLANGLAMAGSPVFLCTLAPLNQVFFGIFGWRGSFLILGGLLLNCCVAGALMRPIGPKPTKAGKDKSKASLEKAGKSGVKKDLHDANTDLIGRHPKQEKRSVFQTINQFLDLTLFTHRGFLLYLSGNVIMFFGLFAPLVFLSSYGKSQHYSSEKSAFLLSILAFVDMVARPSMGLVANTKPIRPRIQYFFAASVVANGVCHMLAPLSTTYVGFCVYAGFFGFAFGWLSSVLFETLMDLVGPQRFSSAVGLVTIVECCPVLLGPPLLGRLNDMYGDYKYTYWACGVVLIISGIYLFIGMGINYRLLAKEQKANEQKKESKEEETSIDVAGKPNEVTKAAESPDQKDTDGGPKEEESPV
Nature of the assay: flow cytometry, MFI on 293T WT (MCT1+ 293) cells, full Mabs. Background: Flow cytometry measures light scatter and fluorescence of single cells or particles in a stream.

Assay [2] concerns the target T1, human MCT1 (monocarboxylate transporter …). Nature of the assay: Kinetic Exclusion Assay (KinExA).
Another assay concerns the target T2, rat MCT1 (rat, UniProt P53987 1-494).
T2 construct: whole, on cells; also called rodent MCT1
T2 sequence (looked up): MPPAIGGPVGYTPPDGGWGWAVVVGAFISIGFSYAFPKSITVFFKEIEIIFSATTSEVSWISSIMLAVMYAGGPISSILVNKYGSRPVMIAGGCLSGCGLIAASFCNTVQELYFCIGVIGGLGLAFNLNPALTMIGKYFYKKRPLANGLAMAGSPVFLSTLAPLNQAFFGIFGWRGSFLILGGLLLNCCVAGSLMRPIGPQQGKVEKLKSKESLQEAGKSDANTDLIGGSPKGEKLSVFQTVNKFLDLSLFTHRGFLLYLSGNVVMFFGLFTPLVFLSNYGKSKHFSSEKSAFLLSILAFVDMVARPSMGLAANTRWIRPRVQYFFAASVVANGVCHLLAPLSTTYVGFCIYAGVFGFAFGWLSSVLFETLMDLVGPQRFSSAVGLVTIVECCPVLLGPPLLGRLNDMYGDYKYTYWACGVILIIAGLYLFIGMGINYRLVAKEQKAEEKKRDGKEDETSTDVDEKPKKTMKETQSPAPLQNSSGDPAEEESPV
Briefly: flow cytometry, rat PBMC (live gate), resting and stimulated.

B1: LM-187 (antibody, V domains shown)
VH: AVTLDESGGGLQTPGGLVSLVCKASGFGFTNYEIHWVRQAPGKGLEWVGFVSSGGAYADYAPAVKGRATITRDNGQSTVRLQLVNLRAEDTGTYYCTRAPCGSWCGWGYTGVDNIDAWGHGTEVIVSS
VL: ALTQPSSVSANPGGIVKITCSGGGRGSHYGWYQQKSPGSAPVTLIYANNQRPSDIPSRFSGSESGSTATLTITGVQAEDEAVYFCGGYDSGATFGAGTTLTVL
Take B1: in assay [1], the binding result is recorded as “no binding”.

B2: MCT1 Ab1 (antibody, V domains shown)
VH: QVQLKATGPGLVQPTQTLSITCTVSGFSLTNYHLQWVRQTPGKGLEWMGFIRSSGNTEYNSEFKSRLSISRDTSKNQVFLKMNSLKTDDTGVYYCARNSWYHGTYYSPGYYVMDAWGQGASVTVSS
VL: NIHLTQSPSLLSASVGDRVTLSCKGSQNINNYLAWFQQKFGETPKLLIYNRHNLQTGIPSRFSGSGSGTDYTLTINSLQPEDVATYFCYQYSDGYTFGAGTKLELK
notes: also called INX310; Rat Anti-MCT1 antibody
As a reminder, the Kd is the constant that tells how readily two partners part at equilibrium. For the molecule B2, the affinity in assay [2], expressed as Kd, was 6.3 nM. Also, the binding result with rat MCT1 is “no binding”.

(Values after patent US20190263931A1 (IMMUNOMETABOLISM DEVELOPMENT, published 2019).)
